Data as given in the supplement of paper PMC12042874.
± gives the uncertainty stated by the source.

Assay: amyloid nucleation score (Sup35N fusion, yeast selection) (log enrichment); library NNK1; higher = more nucleation; inactive = no reads after selection
How it was run: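 Psi-negative yeast expressed Sup35N fused to peptides of 20 random codons. They were induced 24 hours with 100 μM copper sulfate, grown 7 days at 30°C without adenine and uracil, and their plasmid inserts from input and output were Illumina-sequenced. The nucleation score is the DiMSum log enrichment of output over input reads, centred on the mode score of non-aggregating sequences. Sequences with under 100 input reads were excluded.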

Substance	amyloid nucleation score
WSYMVL	-0.645 ± 0.81
WTCLKQEPLAWRWL	-0.093 ± 0.94
WTQPVYLAEEGLRVLDNPKA	inactive
WTVSWHIVGYSRVDVMKRTK	inactive
WVLKL	0.916 ± 0.54
WVLYSIILCERCNHKGTSDG	0.057 ± 0.53
WVRLINSGGQSYFRCGEGRS	0.654 ± 1.2
WVSANKSNCQMYSGTQTPCE	inactive
WVSSEWISTC	-0.268 ± 1.4
WWKRKTSFVSRSYQVRFAQF	-0.058 ± 1.1
WWVGCRACLPWDASSGKLLG	0.139 ± 0.34
WYASRTTSIEYTKVYKCGGP	0.599 ± 0.43
WYDAK	0.286 ± 0.36
WYIMGFTNDRVLRNLMCYTC	0.21 ± 0.35
WYLGNAPRGATRA	-0.229 ± 1
WYRLFALIGLAYLH	0.586 ± 0.56
WYRVR	-0.421 ± 1.1
WYVLDDLHWIQGCNIGIVGG	inactive
YAAVLLNFT	1.09 ± 0.28
YADWLEDCETVP	-0.309 ± 0.45
YAFGHFCTDADSFCGRCVIL	0.09 ± 0.76
YAPLDDSMKLCHERGESLCM	0.186 ± 0.83

Substance	amyloid nucleation score
YAQPIFKLCRTG	-0.921 ± 2.4
YARSSFEDIVVFRDRFG	5.47 ± 0.092
YASGLILIKSPFV	0.276 ± 0.34
YASLNYLLQGRVRA	inactive
YAYEIGFVILQFFNNRVFAL	inactive
YCDVSTYMSEHTISVAQAQS	0.284 ± 0.41
YCHSVVFV	0.352 ± 1
YCIASSVGWFVFVIWPLRKS	0.065 ± 0.56
YCLSYEDCYWYVSVSLRYLW	-0.477 ± 0.31
YCMYMVWLKGK	-0.747 ± 0.37
YCPNLYVVDGCFVLNSKLIL	5.63 ± 0.072
YCSQPSAWSLRLNRSCPHNM	-0.593 ± 1.1
YCVKV	0.308 ± 0.62
YCVVFYP	1.66 ± 0.61
YCWCINNH	6.26 ± 0.084
YDGPLFVTFILI	5.88 ± 0.077
YDNWVVGNYGLSAERICRVE	0.085 ± 0.77
YDYMVALFSRS	-0.479 ± 0.66
YEMVRGCLNMSMMTDKFRAE	0.851 ± 0.67
YEPDELTWSHCTELTEALML	-0.433 ± 0.66
YERVRPGAIHFRIETI	0.146 ± 0.53
YEVIHICTNLEPIVRNCMGG	7.024 ± 0.066

Substance	amyloid nucleation score
YFGDAGAFGFFSGLG	0.192 ± 0.61
YFHPLTKLI	-0.288 ± 0.82
YFKFRGDDCENYWSVSGNEA	0.111 ± 1.2
YFPVGWLTLGISPCGVGDLF	-0.151 ± 0.43
YFRCKFDRASIQHLIASRAH	3.18 ± 0.19
YFRGNVNAWLLWSEICQVPF	0.677 ± 0.88
YFTRFGHSELRSFMLVGTDM	-0.007 ± 0.28
YFWGKHTRFMISY	0.018 ± 0.36
YFYDVMNLRCLVFNKSWFVL	0.119 ± 0.51
YGEHWSS	0.645 ± 1.2
YGILSLRICSLENSLSA	-1.34 ± 1
YGINNLPI	-1.23 ± 0.71
YGNIGV	0.231 ± 0.81
YGNLYCQTFLVWCRNIFLLI	0.255 ± 0.41
YGRGESMLHAGGNWEWTGQE	0.09 ± 1.1
YGRRGNFPSRWTSQHADIKF	-0.308 ± 0.57
YGSKICSIAFCPLLHVQNHP	6.567 ± 0.055
YGTVTGEIIYFLSYLVIMRM	-0.848 ± 0.56
YGVEMLPHISNAVTLFFGN	8.133 ± 0.057
YHKRVNFSVRAGCCC	1.29 ± 0.43
YHSSKGCIVCCR	-0.391 ± 0.24
YHTTFSNVPFKGHARNAQRG	0.172 ± 0.66

Substance	amyloid nucleation score
YIAMYGARTPSCVVKPG	-0.832 ± 0.55
YIDRRLRLRVG	inactive
YIGFVGSGYLVVCVP	-2.02 ± 0.99
YIGVRCG	0.026 ± 0.51
YIIWVYCVRMNSLHELLAMS	0.684 ± 0.8
YINYHCFMIRFQFILVYRYQ	inactive
YIRGYTIFSNWCFGLASGSA	-0.525 ± 0.83
YIVVCSIRNLGRINLRGSDT	0.056 ± 0.8
YKDFVGRTEFYRVGMFRLTE	0.912 ± 0.43
YKEQGTPHLLYADYEARRDG	0.791 ± 0.66
YLGSWIKHRHAQWIARVRNR	0.508 ± 0.29
YLHWTQEDLRGNILGWSMWS	2.32 ± 0.16
YLINRRIYVPVYLLALVISL	-0.189 ± 0.4
YLISYRLTPSYASVNDCFPD	0.203 ± 0.46
YLKMFV	0.01 ± 0.32
YLNYWFR	-0.341 ± 0.28
YLQETLYNKWDWFGNHQGLM	0.107 ± 0.26
YLSHWQFAFIHLNANILL	0.596 ± 1.2
YLSIKVITQGDWKCQVRVLW	-0.332 ± 0.55
YLVILKITGGSDVPTDQMVW	-0.88 ± 0.32
